# Reference: paper PMC10368747, “Zinc-finger BED domains drive the formation of the active Hermes transpososome by asymmetric DNA binding”
# Where “and” joins values, the source holds several entries; their conditions need not be identical. Equal values may be shown once.
# B1: LE11-27 (dsDNA)
# DNA 1: CAACAAGTGGCTTATTT
# DNA 2: AAATAAGCCACTTGTTG
# B2: LE11-27mut (dsDNA)
# DNA 1: CAACAAGTGTTTTATTT
# DNA 2: AAATAAAACACTTGTTG
# Legend:
# [1] = biological target: full-length Hermes transposase (with the mutations Q2E and K128G) (Musca domestica) (UniProt Q25442); assay: cryo-EM structure; LE-LE transpososome: Hermes with 8 + LE-TIR + 30 DNA, 8:2 protein-to-DNA, 150 mM NaCl, 25 mM HEPES.Na pH 7.5, purified by SEC
# [2] = biological target: full-length Hermes transposase (with the mutations Q2E and K128G) (Musca domestica) (UniProt Q25442); assay: cryo-EM structure; RE-RE transpososome: Hermes with 8 + RE-TIR + 30 DNA, 8:2 protein-to-DNA, 150 mM NaCl, 25 mM HEPES.Na pH 7.5, purified by SEC
# [3] = biological target: full-length Hermes transposase (with the mutations Q2E and K128G) (Musca domestica) (UniProt Q25442); assay: cryo-EM structure; LE-LE transpososome: Hermes with 8 + LE-TIR + 30 DNA, 8:2 protein-to-DNA, 150 mM NaCl, 25 mM HEPES.Na pH 7.5, purified by SEC; remark: listed apart in the source
# [4] = biological target: full-length Hermes transposase (with the mutations Q2E and K128G) (Musca domestica) (UniProt Q25442); assay: mass photometry; Hermes (10 µM) mixed with 2.5, 5 or 10 µM left-end DNAs, dialysed to 150 mM NaCl, 25 mM HEPES.Na pH 7.5, 0.3 mM TCEP, diluted 50 and 100 times; composition by subtracting the mass of the hexamer or octamer
# [5] = biological target: full-length Hermes transposase (with the mutations Q2E and K128G) (Musca domestica) (UniProt Q25442); assay: SEC + other: mass photometry; purified Hermes transposase alone, dialysed against 25 mM HEPES.Na pH 7.5, 0.3 mM TCEP with 0.5, 0.25 or 0.15 M NaCl; Superose 6 SEC; mass photometry at 50, 65 and 30 nM; higher salt favours the octamer, lower salt the hexamer
# Hermes BED domain [6] = biological target: T1, Hermes BED domain (Musca domestica, UniProt Q25442 1-78); assay: EMSA; two BED per DNA, cooperative; 0.5 uM ran17 competitor; value assigned by the peer review file; BED EMSA: 25 mM HEPES.Na pH 7.5, 150 mM NaCl, 0.3 mM TCEP, 1 uM DNA, 0.5 uM ran17, 0-10 uM BED, 1 h 4 C then 15 min RT; 15% PAGE 0.5X TBE; Hermes SEC at 150 mM; settings: protein: recombinant; tags: untagged; label: 5'-6FAM top strand (EMSA, 10% of the DNA); blunt
# T1 sequence: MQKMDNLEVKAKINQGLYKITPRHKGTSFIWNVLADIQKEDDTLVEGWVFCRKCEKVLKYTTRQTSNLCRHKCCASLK
# Hermes BED domain [7] = biological target: T1, Hermes BED domain; assay: EMSA; one BED per DNA; Kd in Fig. 6c is 1.7 or 2.8 uM, assignment not resolvable from text; BED EMSA: 25 mM HEPES.Na pH 7.5, 150 mM NaCl, 0.3 mM TCEP, 1 uM DNA, 0.5 uM ran17, 0-10 uM BED, 1 h 4 C then 15 min RT; 15% PAGE 0.5X TBE; Hermes SEC at 150 mM; settings: protein: recombinant; tags: untagged; label: 5'-6FAM top strand (EMSA); blunt
molecule,measurement,setting,value
full-length Hermes transposase (with the mutations Q2E and K128G) (from UniProt Q25442 1-612) (enzyme),stoichiometry N,[1],6
same,stoichiometry N,[2],8
same,stoichiometry N,[3],8
same,stoichiometry N,[4],6 and 8
same,stoichiometry N,[5],6 monomers and 8 monomers
B1,Kd,Hermes BED domain [6],2500 ± 200 nM
B2,binding result,Hermes BED domain [7],binds
